Data reported in patent US20220177587A1, “METHODS AND USES OF VARIANT CD80 FUSION PROTEINS AND RELATED CONSTRUCTS” (Alpine Immune Sciences, Inc., priority 2018, published 2022).

Key:
human PD-L1 (human) [1] = biological target: human PD-L1 (human) (UniProt Q9NZQ7); assay: flow cytometry, CHO cells expressing huPD-L1, vs WT CD80 ECD-Fc (R&D)
Target sequence in this assay (Q9NZQ7 19-290): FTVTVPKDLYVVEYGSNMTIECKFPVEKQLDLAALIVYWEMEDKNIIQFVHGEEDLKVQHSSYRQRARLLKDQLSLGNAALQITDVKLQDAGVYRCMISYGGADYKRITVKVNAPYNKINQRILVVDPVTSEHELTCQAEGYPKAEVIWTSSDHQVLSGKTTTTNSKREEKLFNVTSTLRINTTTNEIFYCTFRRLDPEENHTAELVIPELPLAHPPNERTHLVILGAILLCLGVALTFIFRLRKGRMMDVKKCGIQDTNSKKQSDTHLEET

human CTLA-4 (human) [2] = biological target: human CTLA-4 (human) (UniProt P16410); assay: flow cytometry, CHO cells expressing huCTLA4, vs WT CD80 ECD-Fc (R&D)
human CTLA-4 (human) [3] = biological target: human CTLA-4 (human) (UniProt P16410); assay: flow cytometry, CHO cells expressing huCTLA4
CD28 (human) [4] = biological target: CD28 (human) (UniProt P10747); assay: flow cytometry, Jurkat/IL2 reporter cells (CD28)
human PD-L1 (human) [5] = biological target: human PD-L1 (human) (UniProt Q9NZQ7); assay: flow cytometry, CHO cells expressing huPD-L1
Target sequence in this assay (Q9NZQ7 19-290): as above

CD28 (human) [6] = biological target: CD28 (human) (UniProt P10747); assay: flow cytometry, Jurkat/IL2 reporter cells (CD28), vs WT CD80 ECD-Fc (R&D)
human CTLA-4 (human) [7] = biological target: human CTLA-4 (human) (UniProt P16410); assay: flow cytometry, CHO/huCTLA-4 cells; vs WT CD80 ECD-Fc (Abcam)
[8] = biological target: human CTLA-4 (huCTLA4), on stably transduced CHO cells (human) (UniProt P16410); assay: flow cytometry on CHO cells stably expressing huCTLA4, 33.3 nM Fc fusion, PE anti-human Fc
[9] = biological target: human PD-L1 (huPD-L1), on stably transduced CHO cells (human) (UniProt Q9NZQ7); assay: flow cytometry on CHO cells stably expressing huPD-L1, 33.3 nM Fc fusion, PE anti-human Fc
[10] = biological target: human CTLA-4 (huCTLA4), on stably transduced CHO cells (human) (UniProt P16410); assay: flow cytometry on CHO/huCTLA4 cells; MFI relative to WT CD80 (CD80 WT IgV-Fc = 1.0)
[11] = biological target: human PD-L1 (huPD-L1), on stably transduced CHO cells (human) (UniProt Q9NZQ7); assay: flow cytometry on CHO/huPD-L1 cells; MFI relative to WT CD80 (CD80 WT IgV-Fc = 1.0)
[12] = biological target: human PD-L1 (huPD-L1), on stably transduced CHO cells (human) (UniProt Q9NZQ7); assay: flow cytometry; ratio of MFI on CHO/huPD-L1 cells to MFI on Jurkat (CD28) cells
[13] = biological target: CD28, endogenously expressed on Jurkat/IL2 reporter cells (human) (UniProt P10747); assay: flow cytometry on Jurkat (CD28) cells; MFI relative to WT CD80 (CD80 WT IgV-Fc = 1.0)
human PD-L1 (human) [14] = biological target: human PD-L1 (human) (UniProt Q9NZQ7); assay: flow cytometry; PD-L1 MFI over CD28 MFI of the same protein
Target sequence in this assay (Q9NZQ7 19-290): as above

CD28 (human) [15] = biological target: CD28 (human) (UniProt P10747); assay: flow cytometry, Jurkat cells (CD28); vs WT CD80 ECD-Fc (Abcam)
human CTLA-4 (human) [16] = biological target: human CTLA-4 (human) (UniProt P16410); assay: flow cytometry, CHO cells expressing huCTLA-4
human PD-L1 (human) [17] = biological target: human PD-L1 (human) (UniProt Q9NZQ7); assay: flow cytometry, CHO/huPD-L1 cells; vs WT CD80 ECD-Fc (Abcam)
Target sequence in this assay (Q9NZQ7 19-290): as above

[18] = biological target: CD28, endogenously expressed on Jurkat/IL2 reporter cells (human) (UniProt P10747); assay: flow cytometry on Jurkat/IL2 reporter cells (endogenous CD28), 33.3 nM Fc fusion, PE anti-human Fc
human PD-L1 (human) [19] = biological target: human PD-L1 (human) (UniProt Q9NZQ7)
Target sequence in this assay (Q9NZQ7 19-290 limits assumed): as the sequence (Q9NZQ7 19-290) above

CD28 (human) [20] = biological target: CD28 (human) (UniProt P10747)

Chain of human CTLA-4 (human) (P16410 36-223): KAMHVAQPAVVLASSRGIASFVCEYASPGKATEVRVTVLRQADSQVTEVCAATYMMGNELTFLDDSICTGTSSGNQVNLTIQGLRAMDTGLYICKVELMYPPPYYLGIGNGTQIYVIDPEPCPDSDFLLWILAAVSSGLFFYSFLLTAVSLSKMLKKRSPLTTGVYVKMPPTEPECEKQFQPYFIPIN
Chain of human PD-L1 (huPD-L1), on stably transduced CHO cells (human) (Q9NZQ7 19-290): as the sequence (Q9NZQ7 19-290) above
Chain of human CTLA-4 (huCTLA4), on stably transduced CHO cells (human) (P16410 36-223): as the sequence (P16410 36-223) above

Binder	Fold change to WT CD80 (human PD-L1 (human) [1]) [fold]	Fold change to WT CD80 (human CTLA-4 (human) [2]) [fold]	MFI at 33.3 nM (human CTLA-4 (human) [3]) [MFI]	MFI at 33.3 nM (CD28 (human) [4]) [MFI]	MFI at 33.3 nM (human PD-L1 (human) [5]) [MFI]	Fold change to WT CD80 (CD28 (human) [6]) [fold]	Fold change to WT CD80 (human CTLA-4 (human) [7]) [fold]	MFI at 33.3 nM [8] [MFI]	MFI at 33.3 nM [9] [MFI]	Fold change to WT CD80 [10] [fold]	Fold change to WT CD80 [11] [fold]	Ratio of PDL1:CD28 [12]	Fold change to WT CD80 [13] [fold]	Ratio of PDL1:CD28 (human PD-L1 (human) [14])	Fold change to WT CD80 (CD28 (human) [15]) [fold]	MFI at 33.3 nM (human CTLA-4 (human) [16]) [MFI]	Fold change to WT CD80 (human PD-L1 (human) [17]) [fold]	MFI at 33.3 nM [18] [MFI]	IL-2 luciferase reporter, fold increase over WT CD80-IgV-Fc at 5.0 nM (human PD-L1 (human) [19]) [fold]	IL-2 luciferase reporter, fold increase over WT CD80-IgV-Fc at 5.0 nM (CD28 (human) [20]) [fold]
variant CD80 IgV-Fc Q33L/E35D/M47I/N48D/A71G (Fc fusion) VIHVTKEVKEVATLSCGHNVSVEELAQTRIYWLKDKKMVLTMMSGDIDIWPEYKNRTIFDITNNLSIVILGLRPSDEGTYECVVLKYEKDAFKREHLAEVTLSVKAD	2.62	0.74	117000	644	31200	0.04														
variant CD80 IgV-Fc E35D/M47V (Fc fusion) VIHVTKEVKEVATLSCGHNVSVEELAQTRIYWQKDKKMVLTMMSGDVNIWPEYKNRTIFDITNNLSIVILALRPSDEGTYECVVLKYEKDAFKREHLAEVTLSVKAD				501	6800		1.1	20900	2940	10.9	41.7	6	7	13.6	0.7	44600	53.1	461	4.7	4.7
variant CD80 IgV-Fc E35D/M47L/A71G/L85M/F92Y (Fc fusion) VIHVTKEVKEVATLSCGHNVSVEELAQTRIYWQKDKKMVLTMMSGDLNIWPEYKNRTIFDITNNLSIVILGLRPSDEGTYECVVMKYEKDAYKREHLAEVTLSVKAD	3.93	1.37	216000	2460	46700	0.14														
variant CD80 IgV-Fc E35D/D46V/M47V/V68M/L85Q (Fc fusion) VIHVTKEVKEVATLSCGHNVSVEELAQTRIYWQKDKKMVLTMMSGVVNIWPEYKNRTIFDITNNLSIMILALRPSDEGTYECVVQKYEKDAFKREHLAEVTLSVKAD				331	26300		0.9							79.4	0.5	36500	205		8.5	8.5
variant CD80 IgV-Fc E35D/M47I/T62S/L85Q (Fc fusion) VIHVTKEVKEVATLSCGHNVSVEELAQTRIYWQKDKKMVLTMMSGDINIWPEYKNRTIFDISNNLSIVILALRPSDEGTYECVVQKYEKDAFKREHLAEVTLSVKAD	3.79	1.91	301000	1760	45000	0.1														
variant CD80 IgV-Fc E35D/D46E/M47V/V68M/D90G/K93E (Fc fusion) VIHVTKEVKEVATLSCGHNVSVEELAQTRIYWQKDKKMVLTMMSGEVNIWPEYKNRTIFDITNNLSIMILALRPSDEGTYECVVLKYEKGAFEREHLAEVTLSVKAD	6.06	1.74	273000	27100	71900	1.5														
variant CD80 IgV-Fc E35D/M47I/L85Q/D90G (Fc fusion) VIHVTKEVKEVATLSCGHNVSVEELAQTRIYWQKDKKMVLTMMSGDINIWPEYKNRTIFDITNNLSIVILALRPSDEGTYECVVQKYEKGAFKREHLAEVTLSVKAD	3.01	1.57	248000	4100	35700	0.23														
variant CD80 IgV-Fc Q27H/E35D/M47I/L85Q/D90G (Fc fusion) VIHVTKEVKEVATLSCGHNVSVEELAHTRIYWQKDKKMVLTMMSGDINIWPEYKNRTIFDITNNLSIVILALRPSDEGTYECVVQKYEKGAFKREHLAEVTLSVKAD	2.58	1.64	258000	3510	30700	0.19														
